Measurements taken from PMC8233713, “Direct Interaction of Polar Scaffolding Protein Wag31 with Nucleoid-Associated Protein Rv3852 Regulates Its Polar Localization” (Cells, 2021).

B1: 6X His-tagged Rv3852 protein (natural protein)
chain: MPDPQDRPDSEPSDASTPPAKKLPAKKAAKKAPARKTPAKKAPAKKTPAKGAKSAPPKPAEAPVSLQQRIETNGQLAAAAKDAAAQAKSTVEGANDALARNASVPAPSHSPVPLIVAVTLSLLALLLIRQLRRR
notes: also called hexa-histidine tagged Rv3852
B2: Rv3852-MBP (natural protein)
chain: B1 chain

Columns and labels:
[1] = target: T1, Wag31 (recombinant, from Wag31-pet28a) (Mycobacterium tuberculosis, UniProt P9WMU1 1-260); test: co-IP; details: both partners purified
T1 sequence: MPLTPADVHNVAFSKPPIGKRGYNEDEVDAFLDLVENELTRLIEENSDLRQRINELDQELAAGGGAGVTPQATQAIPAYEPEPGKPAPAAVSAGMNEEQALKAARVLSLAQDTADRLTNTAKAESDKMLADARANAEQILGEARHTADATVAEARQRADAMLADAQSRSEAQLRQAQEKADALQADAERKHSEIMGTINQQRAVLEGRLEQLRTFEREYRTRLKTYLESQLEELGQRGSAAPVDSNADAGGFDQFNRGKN

[2] = target: T1, Wag31 (recombinant, from Wag31-pet28a); test: pull-down; details: both partners purified

Binder | binding result [1] | binding result [2]
B1 | binds | 
B2 |  | binds
